The source of these data is patent publication US20220195014A1.

The assay concerns the target recombinant human NPR3 extracellular domain portion (amino acids Gly27-Ser482) fused to the Fc portion of mouse IgG2a (human; mouse) (UniProt P17342). In words: blocking ELISA, plate-coated hNPR3-mFc, competitor biotin-hANP, 1 µg/mL control antibody.
Sequence of UniProt P17342 (P17342 27-482 limits assumed): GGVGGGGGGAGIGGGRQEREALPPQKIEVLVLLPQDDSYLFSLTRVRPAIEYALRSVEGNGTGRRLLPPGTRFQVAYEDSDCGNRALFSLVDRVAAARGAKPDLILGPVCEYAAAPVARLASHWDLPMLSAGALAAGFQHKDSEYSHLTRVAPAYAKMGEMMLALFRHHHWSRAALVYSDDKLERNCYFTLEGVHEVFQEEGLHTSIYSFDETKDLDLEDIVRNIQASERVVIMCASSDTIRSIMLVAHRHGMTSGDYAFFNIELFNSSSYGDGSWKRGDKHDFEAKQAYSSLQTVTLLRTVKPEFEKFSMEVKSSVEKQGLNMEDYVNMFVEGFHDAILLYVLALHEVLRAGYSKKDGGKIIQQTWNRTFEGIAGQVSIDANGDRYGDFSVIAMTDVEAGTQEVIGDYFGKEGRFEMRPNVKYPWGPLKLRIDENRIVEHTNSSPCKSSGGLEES

On to “non-binding human IgG1 isotype control antibody (blocking ELISA)”, for which the percent blockade worked out at 32%.
